Laboratory results reported in patent US20140051084A1.

Experiments:
Abeta1-42 [1] = experiment: intracellular flow cytometry of monocytes/macrophages from patient and control, isotype control stain (background level)
Abeta1-42 [2] = experiment: intracellular flow cytometry of THP-1 cells, isotype control stain (background level)

Chain of Abeta1-42 (peptide, as listed by the source): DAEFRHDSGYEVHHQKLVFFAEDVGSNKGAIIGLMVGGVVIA

isotype control antibodies (Mouse IgG1 and IgG2b) (antibody)
median Abeta FITC-A signal (Abeta1-42 [1]): 102 | median Abeta FITC-A signal (Abeta1-42 [2]): 102
